2 substances from patent US20060167227A1 can be followed below.

The target of experiment [1] is tau monoclonal antibody (Example 5, FIG. 5). As to the kind of experiment: competitive ELISA.
Experiment [2] has the same target. Kind of experiment: competitive ELISA; printed as apparent affinity = antigen concentration for 50% competition with prototype tau type IA.

Consider “deletion mutant SEQ ID NO: 21 (268-333,R4;del 239-267) (from UniProt O02828 288-353)”, for which the fold decrease in affinity against prototype tau type IA (SEQ ID NO:1) in experiment [1] came out at 1000 fold. For the substance “prototype tau type IA (SEQ ID NO:1) (239-333,R4) (from UniProt O02828 259-353)”, in experiment [2], the IC50 amounted to 10 nM.
